One experiment concerns the target T1, JNK1 (Homo sapiens, UniProt P45983).
T1 construct: expressed in transfected cells
The experiment is described as follows: Co-immunoprecipitation of JIP-1 with JNK1 in transfected COS-1 cells. The format is binding. The procedure:
To test whether JIP-1 and JNK interact in vivo, co-immunoprecipitation analysis was performed. COS-1 cells were mock-transfected or transfected with JIP-1 and JNK1 expression vectors. Constructs expressing epitope (HA) tagged JNK1 have been described previously. Dérijard et al., supra; Sluss et al., supra; Gupta et al., supra. Mammalian JIP-1 expression vectors were constructed by subcloning the JIP-1 cDNA into the XbaI and HindIII sites of pCMV5 and the HindIII and EcoRI sites of pcDNA3 (Invitrogen Inc.). DNA encoding the Flag epitope, -Asp-Tyr-Lys-Asp-Asp-Asp-Asp-Lys- (SEQ ID NO:14) (Immunex Corp.), was inserted into JIP-1 cDNA between the DNA encoding the first two codons of JIP-1 using insertional overlapping polymerase chain reaction (PCR). Ho et al., Gene, 77:51 (1989). Bacterial JIP-1 expression vectors were constructed by subcloning PCR fragments of the JIP-1 cDNA into the EcoRI and XbaI sites of pGEX-3× (Pharmacia LKB Biotechnology Inc.). GST fusion proteins were purified by affinity chromatography on GSH-agarose as described previously. Smith et al., Gene, 67:31 (1988). […]
For the co-immunoprecipitation experiments, transfected or mock-transfected cells were irradiated with or without UV-C (40 J/m^2) and incubated for one hour. […] Immune complexes were detected with a second antibody coupled to horseradish peroxidase and enhanced chemiluminescence (Amersham International PLC).

The next experiment concerns the target T2, JNK2 (Homo sapiens, UniProt P45984).
T2 construct: expressed in transfected cells
The experiment can be described thus: Co-immunoprecipitation of JIP-1 with JNK2. The experiment is classed as binding. As to conditions: protein immunoblot. For orientation: A western blot detects proteins with antibodies after separation by electrophoresis.

The next experiment deals with T3, p38 MAP kinase (Homo sapiens, UniProt Q16539).
T3 construct: expressed in transfected cells
The experiment is described as follows: GST-fusion pull-down from cell lysates, Flag immunoblot: p38 MAP kinase. Conditions: control experiment, Flag-p38 lysate. The format is binding. As to the method: To test whether JIP-1 binding to JNK is also isoform-dependent, a binding assay was utilized. Cell lysates (1 ml in TLB) containing JNK1, JNK2, or p38 MAP kinase, each tagged with the Flag epitope, were incubated with 5 μg GST-fusion proteins pre-bound to 10 μl glutathione-Sepharose. The GST fusion proteins used contain residues 127-202 (SEQ ID NO:15), 203-281 (SEQ ID NO:16), 164-240 (SEQ ID NO:17), or 127-281 (SEQ ID NO:4) of JIP-1. The GST-ATF2 fusion protein contains residues 1-109 of ATF2, and the GST-Jun fusion protein contains residues 1-79 of c-Jun. After incubation for one hour at 4° C. and three washes with TLB, bound proteins were detected by protein immunoblot analysis with the M2 monoclonal antibody, which is specific for the Flag epitope. Dérijard, et al., supra; Sluss et al., supra; Gupta et al., supra. […] This finding is consistent with the results of previous studies. In contrast, when GST-JIP-1 fusion proteins containing residues 127-202 or 127-281 of JIP-1 were tested in the assay, these proteins bound both JNK1 and JNK2.

In experiment [1] the test system is Elk-1 transcriptional activity. The experiment is described as follows: GAL4 luciferase reporter assay in CHO cells: GAL4-Elk-1. The format is cell-based, Chinese hamster. As to conditions: FIG. 4B. As to the method:
In these experiments, CHO cells were cotransfected with constructs encoding the transcription factors and JIP-1 using previously described methods. Dérijard et al., supra; Sluss et al., supra; Gupta et al., supra. A luciferase reporter plasmid was used to monitor the expression of the transcription factors. Transfection efficiency was determined using a β-galactosidase expression vector. Constructs used in these experiments included GAL4 fusions with the c-myc, Sp1 and VP16 activation domains (described in Whitmarsh et al., Science, 269:403 (1995); Davis, Science, 269:403 (1995); Gille et al., Curr. Biol., 5:1191 (1995)). […]
Transfected cells were activated by treatment with 10% (v/v) fetal calf serum, and luciferase and β-galactosidase activities were measured in cell lysates at 48 hours post-transfection. The data are presented as the ratio of luciferase activity (light units) to β-galactosidase activity (OD units) measured in the cell extracts (mean±SEM (n=3)), and are normalized to the luciferase activity detected in the absence of JBD (FIGS. 4A and 4B) or ATF2 (FIG. 4C).
Background: In a reporter assay the amount or activity of a reporter protein is the signal.

T1 sequence (P45983 1-384 isoform P45983-2): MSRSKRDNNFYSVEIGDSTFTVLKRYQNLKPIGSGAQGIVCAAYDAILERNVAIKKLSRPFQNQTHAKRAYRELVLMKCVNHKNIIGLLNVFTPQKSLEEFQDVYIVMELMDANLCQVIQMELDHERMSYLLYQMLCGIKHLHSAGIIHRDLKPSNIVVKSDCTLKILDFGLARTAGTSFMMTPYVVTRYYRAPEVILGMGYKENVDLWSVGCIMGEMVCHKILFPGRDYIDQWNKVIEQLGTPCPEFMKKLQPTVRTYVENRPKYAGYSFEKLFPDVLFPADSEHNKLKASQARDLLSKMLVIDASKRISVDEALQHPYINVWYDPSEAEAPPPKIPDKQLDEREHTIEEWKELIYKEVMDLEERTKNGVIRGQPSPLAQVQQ
T3 sequence (Q16539 whole entry): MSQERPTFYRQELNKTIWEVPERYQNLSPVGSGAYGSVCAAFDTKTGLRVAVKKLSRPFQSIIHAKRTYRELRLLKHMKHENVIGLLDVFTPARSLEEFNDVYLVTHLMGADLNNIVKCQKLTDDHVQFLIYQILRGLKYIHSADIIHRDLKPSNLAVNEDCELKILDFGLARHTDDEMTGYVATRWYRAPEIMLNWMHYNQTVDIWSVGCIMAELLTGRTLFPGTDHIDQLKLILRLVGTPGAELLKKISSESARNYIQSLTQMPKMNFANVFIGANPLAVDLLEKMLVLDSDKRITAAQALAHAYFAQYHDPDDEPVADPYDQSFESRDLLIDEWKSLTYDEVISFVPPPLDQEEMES

B1: JIP-1: 660 amino acid murine cytoplasmic protein that specifically binds JNK (protein)
chain: MAERESGLGGGAASPPAASPFLGLHIASPPNFRLTHDISLEEFEDEDLSEITDECGISLQCKDTLSLRPPRAGLLSAGSSGSAGSRLQAEMLQMDLIDAAGDTPGAEDDEEEEDDELAAQRPGVGPPKAESNQDPAPRSQGQGPGTGSGDTYRPKRPTTLNLFPQVPRSQDTLNNNSLGKKHSWQDRVSRSSSPLKTGEQTPPHEHICLSDELPPQGSPVPTQDRGTSTDSPCRRSAATQMAPPSGPPATAPGGRGHSHRDRIHYQADVRLEATEEIYLTPVQRPPDPAEPTSTFMPPTESRMSVSSDPDPAAYSVTAGRPHPSISEEDEGFDCLSSPERAEPPGGGWRGSLGEPPPPPRASLSSDTSALSYDSVKYTLVVDEHAQLELVSLRPCFGDYSDESDSATVYDNCASASSPYESAIGEEYEEAPQPRPPTCLSEDSTPDEPDVHFSKKFLNVFMSGRSRSSSAESFGLFSCVINGEEHEQTHRAIFRFVPRHEDELELEVDDPLLVELQAEDYWYEAYNMRTGARGVFPAYYAIEVTKEPEHMAALAKNSCVLEISVRGVKIGVKADDALEAKGNKCSHFFQLKNISFCGYHPKNNKYFGFITKHPADHRFACHVFVSEDSTKALAESVGRAFQQFYKQFVEYTCPTEDIYLE
Turning to B1, in the experiment with JNK1 (COS-1 cells transfected with Flag-JIP-1 and HA-JNK1, protein immunoblot), the “co-immunoprecipitation of JIP-1 with JNK1” value is on record as “detected in JNK1 immunoprecipitates”. Further, the “change in amount of JNK/JIP-1 complex on exposure to UV radiation” value with JNK1 (UV-C 40 J/m2, one hour, co-immunoprecipitation) is listed as “no significant change”. For the same molecule, the “co-immunoprecipitation of JIP-1 with JNK2” value with JNK2 was “observed”. For the same molecule, in the experiment with p38 MAP kinase, the “binding to p38 MAP kinase” value is “did not bind”. In addition, the “basal transcriptional activity of Elk-1 mutated at JNK phosphorylation sites” value in experiment [1] (GAL4-Elk-1 (S383A)) is recorded as “not markedly inhibited”. In addition, the Elk-1 transcriptional activity entry in experiment [1] (wild type GAL4-Elk-1, CHO cells) is listed as “partial inhibition”.

These data come from US7838294B2, “Inhibitors of the JNK signal transduction pathway and methods of use” (University of Massachusetts, priority 1997, dated 2010).
